Experimental findings from paper PMC7093598 are described below.

Experiment [1] concerns the target titin N2A construct(s), number of N2A-Us elements not stated for the experiment (human) (UniProt Q8WZ42).
Experiment [2] has the same target. The source holds these as a separate data set.

Substance “CARP (Cardiac Ankyrin Repeat Protein) 106-319, N-terminally truncated construct corresponding to the titin-binding region (from UniProt Q15327 106-319) (domain or fragment)” displayed an increase of the Ig domain unfolding force (F unfold, force peaks 1-4) with CARP, AFM force-extension curves at 400 nm/s in experiment [1] of 20 pN. In experiment [2], the unfolding rate constant α0 of the Ig domains in the absence of applied force with CARP, from the Bell fit of the force clamp data was determined as 0.43 s⁻¹ and the unfolding rate α of the Ig domains with CARP, AFM force clamp at clamp forces of 100-150 pN; value printed at 100 pN (3.2 s^-1 without CARP) was 2.4 s⁻¹.
